Patent US20260191982A1 (GENOME, published 2026)
Values joined by “and” are separate entries in the source; they are usually repeats but may differ in a detail not shown here. Identical values can stand only once.

T1: human BCAM overexpressed on HEK293FT cells (HEK293FT/hBCAM) (human, UniProt P50895 32-628)
T1 construct: whole, on cells; also called HEK293FT/hBCAM cells; BCAM-overexpressing HEK293 cells
T1 sequence (looked up): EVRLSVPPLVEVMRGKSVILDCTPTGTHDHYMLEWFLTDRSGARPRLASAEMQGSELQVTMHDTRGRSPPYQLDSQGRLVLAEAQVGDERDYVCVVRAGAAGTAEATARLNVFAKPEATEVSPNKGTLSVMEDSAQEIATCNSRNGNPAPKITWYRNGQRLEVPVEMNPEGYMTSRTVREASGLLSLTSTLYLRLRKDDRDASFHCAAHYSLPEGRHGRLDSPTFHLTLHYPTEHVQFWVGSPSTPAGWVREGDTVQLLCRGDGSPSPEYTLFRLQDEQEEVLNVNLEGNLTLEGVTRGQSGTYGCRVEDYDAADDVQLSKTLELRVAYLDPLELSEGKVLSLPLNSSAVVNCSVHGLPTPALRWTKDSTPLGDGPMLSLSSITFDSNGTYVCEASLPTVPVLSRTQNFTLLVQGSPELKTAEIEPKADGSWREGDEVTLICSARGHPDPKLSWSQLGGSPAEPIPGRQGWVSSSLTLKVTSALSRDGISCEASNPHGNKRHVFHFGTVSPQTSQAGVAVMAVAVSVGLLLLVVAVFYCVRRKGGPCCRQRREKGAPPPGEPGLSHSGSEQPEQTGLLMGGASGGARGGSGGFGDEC

T2: human BCAM recombinant protein (SinoBiological, USA) (human, UniProt P50895 32-547)
T2 construct: Bought protein; In the sandwich ELISA it was captured by a coated anti-His antibody, which implies a His tag; also called recombinant human BCAM protein; basal cell adhesion molecule
T2 sequence (looked up): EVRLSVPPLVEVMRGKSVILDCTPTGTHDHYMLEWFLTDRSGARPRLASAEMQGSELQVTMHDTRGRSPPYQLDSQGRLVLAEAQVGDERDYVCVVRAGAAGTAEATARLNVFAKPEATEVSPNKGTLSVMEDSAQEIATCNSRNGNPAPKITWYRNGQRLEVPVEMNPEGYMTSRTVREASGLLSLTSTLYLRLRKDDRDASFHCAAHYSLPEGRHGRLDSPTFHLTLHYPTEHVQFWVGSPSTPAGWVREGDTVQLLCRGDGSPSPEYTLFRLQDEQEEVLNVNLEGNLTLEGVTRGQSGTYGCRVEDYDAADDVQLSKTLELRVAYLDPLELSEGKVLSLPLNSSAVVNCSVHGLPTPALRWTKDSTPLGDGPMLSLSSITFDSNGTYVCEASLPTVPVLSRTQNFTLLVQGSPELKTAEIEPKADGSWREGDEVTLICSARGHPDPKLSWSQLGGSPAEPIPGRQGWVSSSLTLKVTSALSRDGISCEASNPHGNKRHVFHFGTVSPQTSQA

B1: Ab1 (anti-BCAM antibody, human IgG4 S228P isotype) (antibody)
heavy: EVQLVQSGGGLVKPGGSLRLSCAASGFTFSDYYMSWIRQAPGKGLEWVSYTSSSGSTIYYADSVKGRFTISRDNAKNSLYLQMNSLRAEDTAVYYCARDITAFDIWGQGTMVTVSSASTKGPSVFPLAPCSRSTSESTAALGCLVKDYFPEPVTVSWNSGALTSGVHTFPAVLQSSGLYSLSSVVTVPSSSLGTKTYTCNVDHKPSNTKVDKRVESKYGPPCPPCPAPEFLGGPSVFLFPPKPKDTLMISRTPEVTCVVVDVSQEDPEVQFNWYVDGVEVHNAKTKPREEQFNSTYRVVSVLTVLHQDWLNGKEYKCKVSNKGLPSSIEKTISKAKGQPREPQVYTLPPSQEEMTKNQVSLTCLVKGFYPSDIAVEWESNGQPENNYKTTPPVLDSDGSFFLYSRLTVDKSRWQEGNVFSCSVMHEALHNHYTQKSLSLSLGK
light: LPVLTQPPSASGSPGQSVTISCTGTSSDVGGYNYVSWYQQHPGKAPKLMIYEVNKRPSGVPDRFSGSKSGNTASLTVSGLQAEDEADYYCCSYAGSNNYVFGTGTKVTVLGQPKAAPSVTLFPPSSEELQANKATLVCLISDFYPGAVTVAWKADSSPVKAGVETTTPSKQSNNKYAASSYLSLTPEQWKSHRSYSCQVTHEGSTVEKTVAPTECS
notes: human IgG4 S228P isotype, lambda light chain; expressed in ExpiCHO-S cells
B2: Ab2 (anti-BCAM antibody, human IgG1 isotype) (antibody)
heavy: not shown
light: B1 light
notes: human IgG1 isotype
B3: Ab3 (anti-BCAM antibody, human IgG1 LALA isotype) (antibody)
heavy: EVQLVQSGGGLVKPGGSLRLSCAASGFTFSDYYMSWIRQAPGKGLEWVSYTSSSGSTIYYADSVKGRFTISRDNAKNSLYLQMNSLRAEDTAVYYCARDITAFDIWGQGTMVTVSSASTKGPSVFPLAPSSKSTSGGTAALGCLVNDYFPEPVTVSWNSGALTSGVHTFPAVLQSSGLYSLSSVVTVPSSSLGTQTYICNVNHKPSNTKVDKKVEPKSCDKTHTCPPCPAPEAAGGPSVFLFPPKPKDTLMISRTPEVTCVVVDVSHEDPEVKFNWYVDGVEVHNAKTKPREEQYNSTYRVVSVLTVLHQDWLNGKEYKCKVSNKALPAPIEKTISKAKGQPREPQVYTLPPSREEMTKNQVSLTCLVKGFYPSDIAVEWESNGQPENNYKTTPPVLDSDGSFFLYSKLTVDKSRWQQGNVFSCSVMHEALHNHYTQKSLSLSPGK
light: B1 light
notes: human IgG1 LALA isotype

Key:
[1] = biological target: T1, human BCAM overexpressed on HEK293FT …; experiment: flow cytometry on HEK293FT cells overexpressing human BCAM, geometric MFI
Description: The binding affinity of Ab1, Ab2 and Ab3 to HEK293FT cells overexpressing human BCAM (HEK293FT/hBCAM) was evaluated by flow cytometry analysis. HEK293FT cells (3.0×10⁶) were seeded to 10 cm cell culture dish and incubated for […], 5% CO₂ incubator. The next day, jetPRIME transfection reagent (20 μL) and human BCAM expression plasmid (10 μg) prepared in jetPRIME transfection buffer (200 μL) were mixed and incubated for 10 min at room temperature. The mixture was added to HEK293FT cells drop-wisely and incubated for 4 hr at 37° C., 5% CO₂ incubator. After 4 hr, the mixture from HEK293FT cells was replaced with fresh complete media and incubated for overnight. HEK293FT/hBCAM cells prepared at 1.0×10⁵ cells/100 μL in FACS buffer. The 100 μL of Ab1, Ab2 (3 pM~56 nM, serial 3-fold dilution, 10 points) and Ab3 (1.524 pM~30 nM, serial 3-fold dilution, 10 points), and HG4K IgG4 (SinoBiological, USA) and HG1K IgG1 (SinoBiological, USA) diluted with FACS buffer was added to cells and incubated for 30 min at 4° C. The cells were washed twice with 200 μL of FACS buffer, and then 1 μg/mL of secondary antibody (AlexaFlour® 647 AffiniPure Goat Anti-Human IgG (H+L), JacksonImmunoResearch, USA) diluted with FACS buffer was added to cells and incubated for 30 min at 4° C. in the dark. After washing twice with 200 μL of FACS buffer, and 7-AAD diluted with FACS buffer (1:100) was added to cells and transferred to FACS tubes for analysis. At least 1.0×10⁴ live cells per sample were read using FACSCantoII (BD, USA). The geometric mean fluorescence intensity for assessing the Ab1, Ab2 and Ab3 binding to hBCAM on HEK293FT/hBCAM cells was measured. The graphs were generated as sigmoidal dose-response curves and EC₅₀ values were determined by nonlinear regression with a four-parameter logistic equation using GraphPad Prism software (GraphPad Software Inc., San Diego, CA, USA). […] See FIGS. 20a and 20b and Table 1D and 1E.

[2] = biological target: T2, human BCAM recombinant protein …; experiment: sandwich ELISA, human BCAM captured by coated anti-His antibody, anti-human IgG Fc-HRP detection
Description: The binding affinity of Ab1 and Ab3 to human BCAM recombinant protein was evaluated using sandwich ELISA (Enzyme-Linked Immunosorbent Assay) method. Anti-His antibody (Biolegend, USA) diluted in PBS to 4 μg/mL was added to 96-well plate (ThermoFisher Scientific, USA) and incubated overnight at 4° C. Next day, solution containing anti-his antibody was removed, and the plate was washed 3 times with 300 μL of PBS-T (0.1% Tween-20 in PBS). The plate coated with anti-his antibody was blocked with 300 μL of 3% skim milk blocking buffer for 1 hr at room temperature. Human BCAM (SinoBiological, USA) diluted in blocking buffer to 25 nM, and 100 μL of prepared proteins was added to 96-well plate and incubated for 1 hr at room temperature. The plate was washed 3 times with 300 μL of PBS-T, and 100 μL of Ab1 and Ab3 (6.4 pM~500 nM, serial 5-fold dilution, 8 points) diluted with blocking buffer was added to each well and incubated for 1 hr at room temperature. […] The absorbance (Optical density at […]) was measured at 450 nm using Synergy H1 (BioTek, Winooski, VT). The graphs were generated as sigmoidal dose-response curves and EC₅₀ values were determined by nonlinear regression with a three-parameter logistic equation using GraphPad Prism software (GraphPad Software Inc., San Diego, CA, USA).

[3] = biological target: T2, human BCAM recombinant protein …; experiment: indirect ELISA, human BCAM coated on plate at 25 nM, anti-human IgG Fc-HRP detection
Description: The binding affinity of Ab1 and Ab2 to human BCAM recombinant protein was evaluated using an indirect ELISA (Enzyme-Linked Immunosorbent Assay) method. Human BCAM (SinoBiological, USA) diluted in PBS to 25 nM, and 50 μL of prepared proteins was added to 96-well half plate (Costar, USA) and incubated overnight at 4° C. Next day, solution containing human BCAM was removed, and the plate was washed 3 times with 150 μL of PBS-T (0.1% Tween-20 in PBS). The plate coated with human BCAM was blocked with 150 μL of 3% BSA blocking buffer for 1 hr at 37° C. Blocking buffer was removed, and 50 μL of Ab1 and Ab2 (6 pM~1 μM, serial 3-fold dilution, 12 points), and HG4K IgG4 (SinoBiological, USA) and HG1K IgG1 (SinoBiological, USA) diluted with blocking buffer was added to each well and incubated for 2 hr at 37° C. The plate was washed 3 times with 150 μL of PBS-T, and secondary antibody (HRP-conjugated anti-human IgG Fc antibody; ThermoFisher Scientific, USA) diluted with blocking buffer (1:100,000) was added to each well and incubated for 1 hr at 37° C. […] The absorbance (Optical density at 450 nm, OD₄₅₀) was measured at 450 nm using Synergy H1 (BioTek, Winooski, VT). The graphs were generated as sigmoidal dose-response curves and EC₅₀ values were determined by nonlinear regression with a four-parameter logistic equation using GraphPad Prism software (GraphPad Software Inc., San Diego, CA, USA).

Binder | EC50 [1] | EC50 [2] | EC50 [3]
B1 | 0.184 nM and 0.027 µg/mL | 1.28 nM and 0.192 µg/mL | 112 pM
B2 | 0.232 nM and 0.034 µg/mL |  | 78 pM
B3 | 0.167 nM and 0.025 µg/mL | 1.31 nM and 0.197 µg/mL | 
